In patent EP4438624A1 (LAVA Therapeutics N.V., dated 2024):
Substitutions are numbered along the chain they refer to.

Legend:
[1] = molecular target: T1, recombinant purified human Nectin-4-Fc fusion protein (human, UniProt Q96NY8 32-349); experiment: BLI (Octet), Nectin-4-Fc on anti-human Fc sensors, run 1
T1 construct: Bought ('Aero Biosystems' as printed); not shown: Fc part of the bought fusion protein; captured by anti-human IgG Fc sensors
T1 sequence: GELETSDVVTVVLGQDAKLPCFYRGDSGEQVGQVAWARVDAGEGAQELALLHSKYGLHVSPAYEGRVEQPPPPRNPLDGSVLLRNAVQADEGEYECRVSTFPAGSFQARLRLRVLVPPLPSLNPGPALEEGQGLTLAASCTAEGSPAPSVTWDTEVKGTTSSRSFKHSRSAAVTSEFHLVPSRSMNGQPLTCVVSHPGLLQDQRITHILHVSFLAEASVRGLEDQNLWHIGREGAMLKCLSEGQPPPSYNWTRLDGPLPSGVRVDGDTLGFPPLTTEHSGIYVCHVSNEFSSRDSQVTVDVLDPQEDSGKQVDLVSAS

[2] = molecular target: T2, human Nectin-4 (on cells) (human, UniProt Q96NY8 32-510); experiment: flow cytometry on HT-29 cells (endogenous Nectin-4)
T2 construct: also called PVRL4; NECT4_HUMAN
T2 sequence: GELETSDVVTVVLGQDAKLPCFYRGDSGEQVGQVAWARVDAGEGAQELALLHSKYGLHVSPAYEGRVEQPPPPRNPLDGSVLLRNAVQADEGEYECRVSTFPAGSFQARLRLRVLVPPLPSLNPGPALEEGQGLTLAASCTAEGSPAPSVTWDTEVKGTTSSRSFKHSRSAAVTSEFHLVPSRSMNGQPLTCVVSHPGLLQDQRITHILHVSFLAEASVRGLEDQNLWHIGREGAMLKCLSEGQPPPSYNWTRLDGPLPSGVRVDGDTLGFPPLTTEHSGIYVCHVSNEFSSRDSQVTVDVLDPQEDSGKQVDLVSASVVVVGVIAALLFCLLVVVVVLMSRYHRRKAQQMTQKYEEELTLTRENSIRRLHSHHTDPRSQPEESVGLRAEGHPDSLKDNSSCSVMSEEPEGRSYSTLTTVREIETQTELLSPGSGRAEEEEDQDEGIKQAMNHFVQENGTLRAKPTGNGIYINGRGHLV

[3] = molecular target: T1, recombinant purified human Nectin-4-Fc …; experiment: BLI (Octet), Nectin-4-Fc on anti-human Fc sensors, run 2
[4] = molecular target: T2, human Nectin-4 (on cells); experiment: flow cytometry on A431 cells (endogenous Nectin-4)
[5] = molecular target: T2, human Nectin-4 (on cells); experiment: flow cytometry on BeWo cells (endogenous Nectin-4)
[6] = molecular target: T3, cynomolgus monkey Nectin-4 (cynomolgus monkey, UniProt A0A2K5WES1 32-510); experiment: cell-based ELISA on CHO-K1 cells expressing cynomolgus monkey Nectin-4
T3 construct: whole, on cells; Transiently expressed on CHO-K1 cells; also called cynomolgus Nectin-4
T3 sequence: T2 sequence with V39A, I230V, A437T

mouse Nectin-4 [7] = molecular target: T4, mouse Nectin-4 (mouse, UniProt Q8R007 31-508); experiment: cell-based ELISA on CHO-K1 cells expressing mouse Nectin-4
T4 construct: whole, on cells; Transiently expressed on CHO-K1 cells; also called murine Nectin-4
T4 sequence (looked up): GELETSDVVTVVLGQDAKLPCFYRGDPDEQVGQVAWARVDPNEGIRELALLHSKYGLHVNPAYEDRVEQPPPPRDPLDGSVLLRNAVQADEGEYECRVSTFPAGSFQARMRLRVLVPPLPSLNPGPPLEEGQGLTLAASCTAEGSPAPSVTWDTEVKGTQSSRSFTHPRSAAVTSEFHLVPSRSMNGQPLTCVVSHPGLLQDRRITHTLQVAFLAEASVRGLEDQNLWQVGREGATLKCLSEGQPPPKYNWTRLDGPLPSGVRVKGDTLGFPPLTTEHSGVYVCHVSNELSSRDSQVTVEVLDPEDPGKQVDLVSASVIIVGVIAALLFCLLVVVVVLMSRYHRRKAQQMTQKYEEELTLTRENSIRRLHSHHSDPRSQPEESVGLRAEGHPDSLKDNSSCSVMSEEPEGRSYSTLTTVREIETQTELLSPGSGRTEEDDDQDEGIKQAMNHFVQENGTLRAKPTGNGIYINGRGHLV

[8] = molecular target: T1, recombinant purified human Nectin-4-Fc …; experiment: BLI (Octet), Nectin-4-Fc on anti-human Fc sensors, run 2; remark: listed apart in the source
[9] = molecular target: T1, recombinant purified human Nectin-4-Fc …; experiment: BLI (Octet), Nectin-4-Fc on anti-human Fc sensors, run 1; remark: listed apart in the source
mouse Nectin-4 [10] = molecular target: T4, mouse Nectin-4; experiment: cell-based ELISA on transfected CHO-K1 cells

B1: LV1184 (VHH)
VHH: EVQLVESGGGLVQAGGSLRLSCAASGSISSINLMGWFRQAPAKQRELVTSISPGGSVRYADSVKGRFTISRDVAKNTVDLQMNSLKPEDTAVYYCAAESERTYYFDSWGQGTQVTVSS
notes: Llama-derived anti-Nectin-4 VHH
- Kd [1]: 0.51 nM
- EC50 [2]: 1.2 nM
- Kd [3]: 0.51 nM
- EC50 [4]: 0.24 nM
- EC50 [5]: 0.3 nM
- binding result [6]: binds
- binding result (mouse Nectin-4 [7]): binds

B2: LV1184xVδ2 (bispecific antibody)
chain: EVQLVESGGGLVQAGGSLRLSCAASGSISSINLMGWFRQAPAKQRELVTSISPGGSVRYADSVKGRFTISRDVAKNTVDLQMNSLKPEDTAVYYCAAESERTYYFDSWGQGTQVTVSSGGGGSEVQLVESGGGLVQAGGSLRLSCAASGRPFSNYAMGWFRQAPGKEREFVAAISWSGGSTSYADSVKGRFTISRDNAKNTVYLQMNSPKPEDTAIYYCAAQFSGADYGFGRLGIRGYEYDYWGQGTQVTVSS
notes: Orientation N-term-anti-Nectin-4 VHH-linker-anti-Vδ2 VHH (5C8); no Fc; also called Nectin-4xVδ2 bispecific VHH
- Kd [8]: 0.18 nM
- koff [8]: 0.000149 s⁻¹
- kon [8]: 844000 M⁻¹ s⁻¹
- Kd [9]: 0.07 nM
- koff [9]: 6.33e-05 s⁻¹
- kon [9]: 973000 M⁻¹ s⁻¹

B3: LV1178 (VHH)
VHH: EVQLVESGGALVQAGGSLRLSCSVSGLTASRLTMGWFRQAPGKEREFVARVYASGGLTDYADSVKGRFTISRDNAKNTVYLQMNSLEPEDTAVYYCVAGLWADMRTMTSTRGYWGQGTQVTVSS
notes: Llama-derived anti-Nectin-4 VHH from phage display
- Kd [3]: 8.02 nM
- binding result (mouse Nectin-4 [10]): no binding (tested: 0.032 to 500 nM)
- binding result [6]: binds

B4: LV1181xVδ2 (bispecific antibody)
chain: EVQLVESGGGLVQAGGSLRLSCAASGSISSINLMGWHRQAPGKQRELVATITRGGSTNYADSVKGRFTISRDNGKNTVYLQMNSLKPEDTAAYYCVDVEPSGMGWRDYWGQGTQVTVSSGGGGSEVQLVESGGGLVQAGGSLRLSCAASGRPFSNYAMGWFRQAPGKEREFVAAISWSGGSTSYADSVKGRFTISRDNAKNTVYLQMNSPKPEDTAIYYCAAQFSGADYGFGRLGIRGYEYDYWGQGTQVTVSS
notes: as for B2
- Kd [8]: 0.37 nM
- koff [8]: 0.0003 s⁻¹
- kon [8]: 818000 M⁻¹ s⁻¹
- Kd [9]: 0.26 nM
- koff [9]: 0.000266 s⁻¹
- kon [9]: 1.04e+06 M⁻¹ s⁻¹

B5: LV1181 (VHH)
VHH: EVQLVESGGGLVQAGGSLRLSCAASGSISSINLMGWHRQAPGKQRELVATITRGGSTNYADSVKGRFTISRDNGKNTVYLQMNSLKPEDTAAYYCVDVEPSGMGWRDYWGQGTQVTVSS
notes: as for B1
- Kd [1]: 0.8 nM
- EC50 [2]: 1.5 nM
- Kd [3]: 0.76 nM
- EC50 [4]: 0.33 nM
- EC50 [5]: 0.4 nM
- binding result [6]: binds
- binding result (mouse Nectin-4 [7]): binds

B6: LV1185 (VHH)
VHH: EVQLVESGGGLVQAGGSLRLSCAASRSTFSLNIMGWYRQAPGKQREYVATITTGGSTNYADSVRGRFTISRDNAEDTVYLQMNSLKPEDTAVYYCTAELVRRGPTTYWGRGTQVTVSS
notes: as for B1
- Kd [1]: 3.61 nM
- Kd [3]: 2.34 nM
- binding result [6]: binds
- binding result (mouse Nectin-4 [7]): binds

B7: LV1186 (VHH)
VHH: B6 VHH with T53S, D76N, N83D
notes: as for B1
- Kd [1]: 3.93 nM
- Kd [3]: 3.94 nM
- binding result [6]: binds
- binding result (mouse Nectin-4 [7]): binds

B8: LV1185xVδ2 (bispecific antibody)
chain: EVQLVESGGGLVQAGGSLRLSCAASRSTFSLNIMGWYRQAPGKQREYVATITTGGSTNYADSVRGRFTISRDNAEDTVYLQMNSLKPEDTAVYYCTAELVRRGPTTYWGRGTQVTVSSGGGGSEVQLVESGGGLVQAGGSLRLSCAASGRPFSNYAMGWFRQAPGKEREFVAAISWSGGSTSYADSVKGRFTISRDNAKNTVYLQMNSPKPEDTAIYYCAAQFSGADYGFGRLGIRGYEYDYWGQGTQVTVSS
notes: as for B2
- Kd [8]: 2.4 nM
- koff [8]: 0.00144 s⁻¹
- kon [8]: 593000 M⁻¹ s⁻¹
- Kd [9]: 2 nM
- koff [9]: 0.00127 s⁻¹
- kon [9]: 642000 M⁻¹ s⁻¹

B9: LV1186xVδ2 (bispecific antibody)
chain: B8 chain with T53S, D76N, N83D
notes: as for B2
- Kd [8]: 2.6 nM
- koff [8]: 0.0017 s⁻¹
- kon [8]: 660000 M⁻¹ s⁻¹
- Kd [9]: 2.3 nM
- koff [9]: 0.00165 s⁻¹
- kon [9]: 731000 M⁻¹ s⁻¹

B10: LV1183 (VHH)
VHH: EVQLVESGGGLVQAGGSLRLSCAASGSIFDINLMGWYRQAPGKLRELVASITRGGSTWYVDSVKGRFIISRDSAKNTVYLQMNSLKPGDTAVYYCAAESIGSYTFDRWGQGTQVTVSS
notes: as for B1
- Kd [1]: 5.7 nM
- Kd [3]: 7.98 nM
- binding result (mouse Nectin-4 [10]): no binding (tested: 0.032 to 500 nM)
- binding result [6]: binds

B11: LV1187 (VHH)
VHH: EVQLVESGGGLVQAGGFLRLSCAASRSVFRINVMGWYRQAPGKQRELVAGITSGGSRRLADSVKGRFTISRDNAKNTVYLQMNSLKPEDTAVYYCFAEAVVGDEPYWGQGTQVTVSS
notes: as for B1
- Kd [1]: 5.2 nM
- Kd [3]: 6.09 nM
- binding result [6]: binds
- binding result (mouse Nectin-4 [7]): binds
